According to the supplement of paper PMC12764529:
± gives the half width of the 95% confidence interval.

Key:
[1] = folding stability dG unfold from trypsin proteolysis; higher = more stable
Method: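 Folding stability of de novo designed mini-proteins (<80 aa, no Cys; designed by TrROS, TrMRF, ProteinMPNN and the joint model) was measured by cDNA display proteolysis with trypsin and chymotrypsin. Each protease was used at 11 concentrations in a threefold dilution series plus a no-protease condition. K50 was inferred by Bayesian fitting of sequencing counts, and dG unfold was derived against a sequence-predicted unfolded-state K50 (Tsuboyama et al. method). Sequences shown include variable-length N-terminal GS-type padding (SAGGSAGG...) inside a display construct carrying a PA tag. Rows were kept only if the AF2 dimer inter-PAE was >15, to exclude likely homo-oligomers.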

[2] = folding stability dG unfold (combined trypsin and chymotrypsin); higher = more stable
Method in brief: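 Bayesian fitting of sequencing counts gave K50 for each design. Unfolding free energy followed by setting this against a sequence-predicted unfolded-state K50 and a shared folded-state K50, either per protease or with trypsin and chymotrypsin combined. The designs, under 80 residues and lacking cysteine, were digested in a PA-tagged cDNA display format at 11 threefold-diluted protease concentrations and without protease, and only those with AlphaFold2 dimer inter-PAE above 15 were kept.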

Row | Sequence | folding stability dG unfold [1] | folding stability dG unfold [2]
1 | SAGSMPVESTSERKLEKDGVATVTTTSYPDASPGGTDTVTVTLHPGESESATTTYTQPPGAPPLTVSLESAG [r5_47_JUSTAS] | -1.05 ± 0.27 kcal/mol | < -1 kcal/mol
2 | SAGGSAVVEIPIPPSSLDVRALIVPTDGPLTTVLVEETLPDGTPRVRLYRYDPARGEVRPLAEELPSAGGSA [r2_402_JUSTAS] | -0.671 ± 0.17 kcal/mol | < -1 kcal/mol
3 | SAGGSAGGSMSTSESVTVTFPDGSVRKATILKQEKLPNGTVPVEIVDEGGTSVGTRNWTVTAESAGGSAGGS [r12_735_JUSTAS] | -0.456 ± 0.28 kcal/mol | < -1 kcal/mol
4 | SAGGSAGGSAGPVISKSEVESTEIIFSYNNKHEITVKKVKKTITTTIPPVKLKPDGTPILSAGGSAGGSAGG [r11_558_JUSTAS] | -0.803 ± 0.51 kcal/mol | -0.349 ± 0.54 kcal/mol
5 | SAGGSAGGSMMKVRVYARNKDGEEVPVEEIEIPPEVETPEEALKLAEELAKKEGVEEVRVEIESAGGSAGGS [r12_569_TrROS_Hall] | -0.13 ± 0.19 kcal/mol | -0.609 ± 0.38 kcal/mol
6 | SAGGSAGGSAGGDAILIEVESPEDAVEAARELAEKEFGIDPENFPINVVVDEPDGKALIASAGGSAGGSAGG [r7_387_TrMRF] | 0.743 ± 0.019 kcal/mol | -0.404 ± 0.25 kcal/mol
7 | SAGGSAGGSAGMKPGQEVRVEVPVPNNGKKIKIPVYVPPGYTPKQAKNMAIMMAKMIREMSAGGSAGGSAGG [r11_355_TrROS] | 0.516 ± 0.072 kcal/mol | 0.0699 ± 0.096 kcal/mol
8 | SMKKTLTEKIEGVLPEEEAERYLEEYIASRPWAEKVEVKPEIKPIFDEKGNKLVKVKTTITVTISEEKLKSA [r9_1006_JUSTAS] | -0.776 ± 0.95 kcal/mol | < -1 kcal/mol
9 | SAGGWRLNINFPPDNIEKIVEKLRDEFPGWEIKPDKIEYNPDDGQYTIPIEVKSKNPRAAEKIQDAIQSAGG [r13_539_TrROS] | 0.154 ± 0.14 kcal/mol | -0.955 ± 0.39 kcal/mol
10 | SAGGSAGGSAGKKRKIEINIIVPPEGAKQMAKMIKDELAQRNRDVDIEIKIIPVPPGQPLSAGGSAGGSAGG [r11_973_TrROS] | 0.434 ± 0.16 kcal/mol | < -1 kcal/mol
11 | SPAVRPLSAEFYDPRYTVEAPVYESEEGEPVLNIRFLVPEYELEIPFPLEDPEAVFESFAEDGVSLTLTDSA [r9_384_TrMRF] | 0.0201 ± 0.088 kcal/mol | -0.723 ± 0.17 kcal/mol
12 | SAGGSAGGSAGKEIHIPFPDGDTPEQAKKFAKEIADMLAQKNGKPIKVDKIEIIPPEQWPSAGGSAGGSAGG [r17_68_TrROS] | -0.546 ± 0.11 kcal/mol | -0.804 ± 0.34 kcal/mol
13 | SAGGGKIVFTEGYLLAEFPPTDLRVARPIPPDRPELALEEVADAFIAEMEAEFGFPPPEDVRVEVLASAGGS [r8_402_TrMRF] | 0.28 ± 0.058 kcal/mol | -0.0645 ± 0.2 kcal/mol
14 | SAGGSAGGSAMILVPKEKLEEAAKKLNLNIVEVKPVPPGIEVAEVKVEGSEEQKKAFLEALLSAGGSAGGSA [r18_175_JUSTAS] | 0.216 ± 0.082 kcal/mol | 0.0149 ± 0.2 kcal/mol
15 | SAGGSAGGSAGGMTKISVNIVIYDPKNNTTKIIPITMSESEIKKVKEELVPKNMSAKILSAGGSAGGSAGGS [r10_397_JUSTAS] | 0.847 ± 0.12 kcal/mol | 0.191 ± 0.24 kcal/mol
16 | SAGGSAGGSAGGTKVIPFDSVEEILEEVKKDPNKPRYIRMPGAWIKINKPGDITEIEPWPSAGGSAGGSAGG [r7_532_TrROS] | -0.655 ± 0.46 kcal/mol | < -1 kcal/mol
17 | SMGLTKKERVITIVKEAYAKNPDKKITLRYADIEATTPEKMSAEEIEKLLKEVTGIKDIKIYPVKPDDPESA [r9_738_TrMRF] | 0.0464 ± 0.25 kcal/mol | < -1 kcal/mol
18 | SAGGSAGGSKIPIHIWVPPGGSPKKAKERIRRYIREQMPPGNKDMPIDDIKIDVHVMPPGQPVSAGGSAGGS [r12_384_TrROS] | -0.427 ± 0.9 kcal/mol | < -1 kcal/mol
19 | SAGGSAGGSAESIDAKVTPVALPSGPRYLIEVNNPAAPEIPKSVVEEELAKKYPKERVELLSAGGSAGGSAG [r3_226_JUSTAS] | -0.516 ± 0.1 kcal/mol | < -1 kcal/mol
20 | SNPWQIKFRNPNRPVEIPIQMNPDDGYVGISVRMRKPGKPKTHTITYKVKNIEDLLDHLEDLPPGFEIEPSA [r9_713_TrROS] | 0.435 ± 0.27 kcal/mol | -0.0771 ± 0.45 kcal/mol
